This note sets out measurements from patent publication US6653088 (AVENTIS PHARMA S A, dated 2003).

B1: amyline (peptide, UniProt P10997 34-70, looked up)
peptide: KCNTATCATQRLANFLVHSSNNFGAILSSTNVGSNTY
notes: also called another amyloidogenous peptide
B2: S-tag-PS2Nt (recombinant PS2NT protein produced in bacterium) (other, not shown: small tags and cut ends)
chain: MLTFMASDSEEEVCDERTSLMSAESPTPRSCQEGRQGPEDGENTAQWRSQENEEDGEEDPDRYVCSGVPGRPPGLEEELTLKYGAKH
notes: also called unlabelled PS2NT
B3: cytoplasmic domain of the APP (MC45F) (other, not shown: small tags and cut ends)
chain: KKQYTSIHHGVVEVDAAVTPEERHLSKMQQNGYENPTYKFFEQMQNDYDDDDK
notes: also called cytoplasmic domain of APP; the 45 last residues of the APP

Test [1] concerns the target B2. The test can be described thus: 96-well plate test (ELISA type), peptide on plastic, S-tag detection. As for the experimental part:
The plates are rinsed twice with PBS and the non-specific immobilization sites are saturated by incubation with 5% (w/v) of bovine serum albumin in PBS. […] The detection of the signal is carried out in a spectrophotometer at 450 nm.
The Aβ peptide (Aβ40 or Aβ42) is immobilized by incubation on plastic 96-well plates.
In general terms: An ELISA detects its analyte on a solid surface through an enzyme-linked reagent.

In the next test the target is T1, biot-3K-Aβ42RR (UniProt P05067 672-713, biotin at the N-terminal end).
T1 construct: domain: Aβ1-42; also called biot-Aβ42; biot-Aβ1-42
The experiment in a line: HTRF competition; unlabelled PS2NT displaces PS2NT-K from biot-Aβ42. A general note: In TR-FRET formats the signal depends on donor and acceptor labels being close together.

The target in a further test is T2, presenilin 2 (PS2) (human, UniProt P49810 1-448).
T2 construct: whole, on cells; Full-length membrane protein; complexes formed in transfected COS cells and were analysed in detergent lysates; also called complete PS2; STM2
The test can be described thus: co-immunoprecipitation from cotransfected COS cells, detection with αCT43.

In general, IC50 refers to the concentration that gives 50% inhibition.

Procedure for presenilin 2 (PS2): For immunoprecipitation, 100 μg of proteins are diluted in 400 μl of modified RIPA (150 mM NaCl, 50 mM Tris pH 8.0, 1% TRITON X100 v/v, 1% NP40 v/v). Thirty microlitres of protein A Sepharose suspension (0.1% m/v in PBS solution) and 3 μl of antibody are added. The suspensions are gently mixed on a rotating shaker at 4° C. for one night. The protein A Sepharose complex is washed 3 times with 0.5 ml of modified RIPA and once with 0.5 ml of "Wash C" washing buffer (10 mM Tris pH 7.5).

As to B1, the binding result in test [1] is “no binding”.

In the test with biot-3K-Aβ42RR, B2 registered an IC50 of 400 nM.

For the molecule B3, in the test with presenilin 2 (PS2), the binding result is reported as “no binding”.
